Measurements from paper PMC3508374 (Molecular microbiology, 2012).

Molecular target: the molecule itself
Experiment: SEC

| Protein | stoichiometry N |
| --- | --- |
| Bacillus subtilis Fur (ferric uptake regulator), wild type (natural protein, UniProt P54574 1-149, looked up) MENRIDRIKKQLHSSSYKLTPQREATVRVLLENEEDHLSAEDVYLLVKEKSPEIGLATVYRTLELLTELKVVDKINFGDGVSRYDLRKEGAAHFHHHLVCMECGAVDEIEEDLLEDVEEIIERDWKFKIKDHRLTFHGICHRCNGKETE | 2 |
| Bacillus subtilis Fur H132A (site 3 mutant) (natural protein, UniProt P54574 1-149, looked up) MENRIDRIKKQLHSSSYKLTPQREATVRVLLENEEDHLSAEDVYLLVKEKSPEIGLATVYRTLELLTELKVVDKINFGDGVSRYDLRKEGAAHFHHHLVCMECGAVDEIEEDLLEDVEEIIERDWKFKIKDARLTFHGICHRCNGKETE | 2 |
| Bacillus subtilis Fur H95A (site 2 mutant) (natural protein, UniProt P54574 1-149, looked up) MENRIDRIKKQLHSSSYKLTPQREATVRVLLENEEDHLSAEDVYLLVKEKSPEIGLATVYRTLELLTELKVVDKINFGDGVSRYDLRKEGAAHFAHHLVCMECGAVDEIEEDLLEDVEEIIERDWKFKIKDHRLTFHGICHRCNGKETE | 2 |
| Bacillus subtilis Fur H96A (site 3 mutant) (natural protein, UniProt P54574 1-149, looked up) MENRIDRIKKQLHSSSYKLTPQREATVRVLLENEEDHLSAEDVYLLVKEKSPEIGLATVYRTLELLTELKVVDKINFGDGVSRYDLRKEGAAHFHAHLVCMECGAVDEIEEDLLEDVEEIIERDWKFKIKDHRLTFHGICHRCNGKETE | 2 |
| Bacillus subtilis Fur H37A (site 2 mutant) (natural protein, UniProt P54574 1-149, looked up) MENRIDRIKKQLHSSSYKLTPQREATVRVLLENEEDALSAEDVYLLVKEKSPEIGLATVYRTLELLTELKVVDKINFGDGVSRYDLRKEGAAHFHHHLVCMECGAVDEIEEDLLEDVEEIIERDWKFKIKDHRLTFHGICHRCNGKETE | 2 |
| Bacillus subtilis Fur H97A (site 2 mutant) (natural protein, UniProt P54574 1-149, looked up) MENRIDRIKKQLHSSSYKLTPQREATVRVLLENEEDHLSAEDVYLLVKEKSPEIGLATVYRTLELLTELKVVDKINFGDGVSRYDLRKEGAAHFHHALVCMECGAVDEIEEDLLEDVEEIIERDWKFKIKDHRLTFHGICHRCNGKETE | 2 |
